Assay results: patent publication US20230372503A1, “CONJUGATE OF FUNCTIONAL POLYPEPTIDE VARIANT, AND USE THEREOF” (PROABTECH INC., priority 2020, published 2023)

Experiment: Pharmacokinetics (PK) of hGH variant-HSA conjugate, blood level by sandwich ELISA
Format: in vivo
Details: 7-week-old male ICR mice, 65 nmol/kg intravenous tail injection, blood 0.5-24 h
Protocol: For pharmacokinetic evaluation of the hGH variant-HSA conjugate, 7-week-old male ICR mice (n=6) were used. 65 nmol/kg each of hGH variant-HSA (L52) and hGH variant-HSA (Q141) was intravenously injected into the tail, blood collection was performed at 0.5, 4, 8, 12, and 24 hours after injection, and centrifugation was performed at 2,500 rpm for 10 minutes, followed by storing at −20° C. As a comparative group, Norditropin (somatropin, Novo Nordisk) was administered at the same concentration, and then compared with the above sample.
The hGH variant-HSA conjugate in blood was analyzed by sandwich ELISA (human growth hormone (GH) DouSet ELISA, R&D Systems). An anti-hGH capture antibody was added to coat an immunoplate at 4° C. overnight, and a reaction was blocked with 1% BSA in PBS at 37° C. for 1 hour. The blood sample collected and was diluted on the washed plate and left for 2 hours, and then treated with an anti-hGH detection antibody at room temperature for 2 hours. After treating the detection antibody with streptavidin-HRP at room temperature for 1 hour, 100 μL of a substrate was treated for 5 minutes and then 2N H2SO4 was treated to stop the reaction. Afterward, a microplate reader (Hidexsense, Finland) was used to measure an optical density at 450 nm. […]

## Norditropin: comparative group, Norditropin (somatropin, Novo Nordisk)
  half-life: 30 min
